Results published in patent US20240400677A1.

Experiments:
[1] = target: human SIRPγ on primary human T-cells (human) (UniProt Q9P1W8); experiment: flow cytometry, naive resting human CD3+ T cells
[2] = target: human SIRPγ on primary human T-cells (human) (UniProt Q9P1W8); experiment: flow cytometry, naive resting human CD4+ T cells
[3] = target: human SIRPγ on primary human T-cells (human) (UniProt Q9P1W8); experiment: flow cytometry, naive resting human CD8+ T cells
[4] = target: human SIRPγ on primary human T-cells (human) (UniProt Q9P1W8); experiment: flow cytometry, anti-CD3/CD28-stimulated human CD3+ T cells
[5] = target: human SIRPγ on primary human T-cells (human) (UniProt Q9P1W8); experiment: flow cytometry, anti-CD3/CD28-stimulated human CD4+ T cells
[6] = target: human SIRPγ on primary human T-cells (human) (UniProt Q9P1W8); experiment: flow cytometry, anti-CD3/CD28-stimulated human CD8+ T cells

Sequence of human SIRPγ on primary human T-cells (human) (Q9P1W8 29-387 limits assumed): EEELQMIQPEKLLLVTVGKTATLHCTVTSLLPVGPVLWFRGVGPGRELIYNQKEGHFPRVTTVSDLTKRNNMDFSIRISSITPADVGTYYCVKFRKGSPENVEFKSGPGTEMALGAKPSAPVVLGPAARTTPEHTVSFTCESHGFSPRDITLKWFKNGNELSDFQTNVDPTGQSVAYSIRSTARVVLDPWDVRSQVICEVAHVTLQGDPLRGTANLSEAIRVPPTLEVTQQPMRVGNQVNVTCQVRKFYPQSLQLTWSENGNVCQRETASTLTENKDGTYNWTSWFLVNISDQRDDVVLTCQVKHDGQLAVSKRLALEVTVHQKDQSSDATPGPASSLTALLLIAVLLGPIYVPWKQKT

Substance: mouse monoclonal antibody against human SIRPγ, clone OX-119 (ThermoFisher Scientific MA5-28215)
- EC50 (read off the curve) [1]: 0.2 µg/mL
- EC50 (read off the curve) [2]: 0.04 µg/mL
- EC50 (read off the curve) [3]: 0.09 µg/mL
- EC50 (read off the curve) [4]: 0.4 µg/mL
- EC50 (read off the curve) [5]: 0.05 µg/mL
- EC50 (read off the curve) [6]: 0.1 µg/mL
